Values quoted from earlier work, collected in article PMC7289715.

Molecular target: Spike protein (SARS-CoV-2) (UniProt P0DTC2)

Substance: CD147 (from UniProt P35613)
- Kd: 185 nM
